Residue numbers refer to the chain shown, from its start.

Experimental findings from patent US20210060169A1 are described below.

In one test the target is human IL-2Rαβγ (human) (UniProt P01589). As to the kind of experiment: cell-based or functional assay.
Another test concerns the target human IL-2Rβγ (human) (UniProt P14784). As to the kind of experiment: cell-based or functional assay.

human IL-2Rαβγ (human), sequence (P01589 22-272, chain 1 of 3): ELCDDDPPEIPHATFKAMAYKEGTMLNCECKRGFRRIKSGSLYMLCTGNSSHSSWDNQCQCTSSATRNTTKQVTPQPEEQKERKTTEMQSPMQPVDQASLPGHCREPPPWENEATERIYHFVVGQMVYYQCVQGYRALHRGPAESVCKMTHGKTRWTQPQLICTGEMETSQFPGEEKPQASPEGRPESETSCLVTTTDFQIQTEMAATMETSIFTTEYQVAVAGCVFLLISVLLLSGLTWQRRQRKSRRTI
human IL-2Rαβγ (human), sequence (P14784 27-551, chain 2 of 3, further chain): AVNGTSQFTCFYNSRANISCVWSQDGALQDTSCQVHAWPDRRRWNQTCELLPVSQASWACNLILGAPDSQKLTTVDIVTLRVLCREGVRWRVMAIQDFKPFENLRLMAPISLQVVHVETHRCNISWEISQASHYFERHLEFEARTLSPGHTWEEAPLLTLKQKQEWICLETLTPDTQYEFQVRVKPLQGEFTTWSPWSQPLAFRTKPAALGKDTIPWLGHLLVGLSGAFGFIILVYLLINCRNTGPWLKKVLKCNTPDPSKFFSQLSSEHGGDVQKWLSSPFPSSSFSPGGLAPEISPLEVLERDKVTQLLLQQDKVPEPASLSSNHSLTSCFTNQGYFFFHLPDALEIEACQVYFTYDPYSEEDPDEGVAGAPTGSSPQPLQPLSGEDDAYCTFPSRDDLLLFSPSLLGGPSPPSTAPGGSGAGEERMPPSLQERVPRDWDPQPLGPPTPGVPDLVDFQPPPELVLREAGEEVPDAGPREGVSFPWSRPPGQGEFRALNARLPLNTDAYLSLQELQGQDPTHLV
human IL-2Rαβγ (human), sequence (P31785 23-369, chain 3 of 3, further chain): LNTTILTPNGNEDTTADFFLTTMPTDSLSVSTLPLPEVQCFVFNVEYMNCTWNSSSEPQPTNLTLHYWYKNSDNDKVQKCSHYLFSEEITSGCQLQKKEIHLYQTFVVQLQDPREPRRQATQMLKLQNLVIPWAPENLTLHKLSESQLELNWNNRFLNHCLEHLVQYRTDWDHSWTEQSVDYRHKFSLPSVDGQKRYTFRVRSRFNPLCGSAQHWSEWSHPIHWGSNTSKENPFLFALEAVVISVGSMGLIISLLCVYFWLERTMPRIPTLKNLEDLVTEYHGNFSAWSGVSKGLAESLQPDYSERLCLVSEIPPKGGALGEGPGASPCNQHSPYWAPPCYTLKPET
human IL-2Rβγ (human), sequence (P14784 27-551, chain 1 of 2): as the sequence (P14784 27-551, chain 2 of 3, further chain) above
human IL-2Rβγ (human), sequence (P31785 23-369, chain 2 of 2, further chain): as the sequence (P31785 23-369, chain 3 of 3, further chain) above

B1: 8His-S4(oAzZK)-Li30/F78(oAzZK)-Li30 (ligand)
chain: MHHHHHHHHAPTKSSTKKTQLQLEHLLLDLQMILNGINNYKNPKLTRMLTFKFYMPKKATELKHLQCLEEELKPLEEVLNLAQSKNKHLRPRDLISNINVIVLELKGSETTFMCEYADETATIVEFLNRWITFSQSIISTLT
Consider B1, for which, in the test with human IL-2Rαβγ (human), the Standardized EC50 ratio value was over 30 and the Treg proliferation rate at 650 to 6500 pmol/L was over 80%.

B2: 8His-S4(oAzZK)-Li30/I129(oAzZK)-Li30 (ligand)
chain: B1 chain with K87F, I138K
On to B2, for which, in the test with human IL-2Rαβγ (human), the Standardized EC50 ratio value is over 30 and the Treg proliferation rate at 650 to 6500 pmol/L was over 80%. This molecule also came in with an NK cell proliferation rate at 65 nmol/L (proliferation medium) with human IL-2Rβγ (human) of under 20%.

B3: 8His-S4(oAzZK)-Y50/I129(oAzZK)-Y50 (ligand)
chain: B1 chain with K87F, I138K
As to B3, the Standardized EC50 ratio value with human IL-2Rαβγ (human) is over 30.
